{"source": "patent US7214519B2", "about": "“Screening method for identifying heme independent modulators of soluble guanylyl cyclase (sGC) activity using αβCys105 mutant sGC” (Board of Regents of the University of Texas System, priority 2003, dated 2007)", "origin": "cited, not measured here", "molecules": {"B1": {"name": "αβ^Phe105: bovine sGC with βHis105→Phe substitution, from the literature (40) (protein, UniProt P19687 1-691; P16068 1-619, looked up, variant H105F)", "Guanylate cyclase soluble … 1": "MFCAKLKDLQITGDCPFSLLAPGQVPREPLGEATGSGPASTPGQPGVCPGVPDKNPPGRLPRRKTSRSRVYLHTLAESICKLIFPEFERLNLALQRTLAKHKIKENRKSLEREDFEKIVVDQAIAAGVPVEIIKESLGEELFKICYEEDEYILGVVGGTLKDFLNSFSTLLKQSSHCQEAEKKGRFEDASILCLDKDPDVLYVYYFFPKRITSLILPGIIKAAARILYETEVEVSSTPSRFHQDCREFVDQPCELYSVHIRSARPHPPPGKPVSSLVIPASLFCKTFPFHFMLDRDMSILQLGHGIRRLMSRRDVQGKPHFDEYFEILTPKISQTFSGIMTMLNMQFLVRVRRWDNSMKKSSRVMDLKGQMIYMVESSSILFLGSPCVDRLEDFTGRGLYLSDIPIHNALRDVVLIGEQARAQDGLKKRLGKLKATLEQAHQALEEEKRKTVDLLCSIFPSEVARQLWQGHAVQAKRFGNVTMLFSDIVGFTAICSQCSPLQVITMLNALYTRFDRQCGELDVYKVETIGDAYCVAGGLHKESDTHAVQIALMALKMMELSHEVVSPHGEPIKMRIGLHSGSVFAGVVGVKMPRYCLFGNNVTLANKFESCSVPRKINVSPTTYRLLKDCPGFVFTPRSREELPPNFPSDIPGICHFLEAYQQGTTSKPWFQKKDVEEANANFLGKASGID", "Guanylate cyclase soluble … 2": "MYGFVNHALELLVIRNYGPEVWEDIKKEAQLDEEGQFLVRIIYDDSKTYDLVAAASKVLNLNAGEILQMFGKMFFVFCQESGYDTILRVLGSNVREFLQNLDALFDHLATIYPGMRAPSFRCTDADKGKGLILHYYSEREGLQDIVIGIIKTVAQQIHGTEIDMKVIQQRNEECDHTQFLIEEKESKEEDFYEDLDRFEENGTQESRISPYTFCKAFPFHIIFDRDLVVTQCGNAIYRVLPQLQPGNCSLLSVFSLVRPHIDISFHGILSHINTVFVLRSKEGLLDVEKSECEDELTGTEISCLRLKGQMIYLPEADSILFLCSPSVMNLDDLTRRGLYLSDIPLHDATRDLVLLGEQFREEYKLTQELEILTDRLQLTLRALEDEKKKTDTLLYSVLPPSVANELRHKRPVPAKRYDNVTILFSGIVGFNAFCSKHASGEGAMKIVNLLNDLYTRFDTLTDSRKNPFVYKVETVGDKYMTVSGLPEPCIHHARSICHLALDMMEIAGQVQVDGESVQITIGIHTGEVVTGVIGQRMPRYCLFGNTVNLTSRTETTGEKGKINVSEYTYRCLMTPENSDPQFHLEHRGPVSMKGKKEPMQVWFLSRKNTGTEETEQDEN", "modifications": "mutation in beta subunit"}}, "target": "T1, αβ^Phe105 sGC (Bos taurus, UniProt P16068+P19687, H105F)", "T1 sequence (P16068 1-619 H105F)": "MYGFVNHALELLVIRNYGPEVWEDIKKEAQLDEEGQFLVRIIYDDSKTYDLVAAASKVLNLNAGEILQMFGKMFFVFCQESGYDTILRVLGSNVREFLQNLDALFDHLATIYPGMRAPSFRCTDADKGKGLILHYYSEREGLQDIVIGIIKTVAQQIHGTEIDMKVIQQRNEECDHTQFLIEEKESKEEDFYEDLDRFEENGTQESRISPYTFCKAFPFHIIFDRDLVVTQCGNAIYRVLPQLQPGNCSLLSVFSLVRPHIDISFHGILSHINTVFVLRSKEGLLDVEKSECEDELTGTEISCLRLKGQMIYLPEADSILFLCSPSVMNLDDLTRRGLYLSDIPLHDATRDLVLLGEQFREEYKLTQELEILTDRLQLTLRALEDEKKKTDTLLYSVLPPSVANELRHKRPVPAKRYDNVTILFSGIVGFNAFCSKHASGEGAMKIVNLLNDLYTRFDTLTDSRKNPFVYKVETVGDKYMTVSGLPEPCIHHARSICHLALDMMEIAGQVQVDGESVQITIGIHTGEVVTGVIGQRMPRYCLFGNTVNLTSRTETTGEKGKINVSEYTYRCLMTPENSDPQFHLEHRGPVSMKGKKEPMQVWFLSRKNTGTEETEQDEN", "T1 sequence (P19687 1-691)": "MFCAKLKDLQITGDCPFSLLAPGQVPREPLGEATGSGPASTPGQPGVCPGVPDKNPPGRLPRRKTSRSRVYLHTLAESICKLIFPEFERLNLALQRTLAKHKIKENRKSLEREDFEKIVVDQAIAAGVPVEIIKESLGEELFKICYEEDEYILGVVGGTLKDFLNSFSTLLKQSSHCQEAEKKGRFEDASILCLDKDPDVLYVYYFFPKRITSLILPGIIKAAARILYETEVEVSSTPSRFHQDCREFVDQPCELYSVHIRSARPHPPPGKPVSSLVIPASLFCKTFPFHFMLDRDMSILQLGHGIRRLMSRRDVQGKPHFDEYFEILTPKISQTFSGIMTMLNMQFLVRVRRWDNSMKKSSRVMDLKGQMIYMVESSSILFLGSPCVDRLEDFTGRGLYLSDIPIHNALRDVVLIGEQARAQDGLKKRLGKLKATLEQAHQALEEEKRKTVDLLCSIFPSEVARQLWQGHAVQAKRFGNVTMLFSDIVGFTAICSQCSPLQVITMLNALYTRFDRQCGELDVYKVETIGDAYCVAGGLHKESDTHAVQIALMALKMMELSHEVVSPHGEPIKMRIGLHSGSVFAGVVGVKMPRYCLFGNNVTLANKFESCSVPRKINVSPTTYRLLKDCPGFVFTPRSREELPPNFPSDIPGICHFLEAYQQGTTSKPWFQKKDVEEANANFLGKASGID", "conditions": "cited from earlier work; for Specific activity: with DTT", "note": "Read-outs that look alike come from different tables or passages of the source."}
{"molecule": "B1", "values": [{"measurement": "Specific activity", "setting": "+NO", "value": "0.11 ± 0.03", "unit": "µmol/min/mg"}, {"measurement": "Specific activity", "setting": "Basal", "value": "0.04 ± 0.03", "unit": "µmol/min/mg"}, {"measurement": "basal activity", "value": "about 40 nmol/min/mg"}]}
